Test results reported in patent US20100202967A1 (BRACCO IMAGING, published 2010).
Bridge positions count the residues as written; N and C are the ends. Square brackets hold non-standard residues; d marks the D form. Ends that are not written are not given here. Phe(3,4-F2) = N[C@@H](Cc1ccc(F)c(F)c1)C(=O)O; Thf2ca = tetrahydrofuran-2-carboxylic acid; Phe(4-F) = N[C@@H](Cc1ccc(F)cc1)C(=O)O; Hyp = O=C(O)[C@@H]1C[C@@H](O)CN1; Cha = N[C@@H](CC1CCCCC1)C(=O)O; CF5 = 5-carboxyfluorescein

T1: fibrin
T1 chain 1: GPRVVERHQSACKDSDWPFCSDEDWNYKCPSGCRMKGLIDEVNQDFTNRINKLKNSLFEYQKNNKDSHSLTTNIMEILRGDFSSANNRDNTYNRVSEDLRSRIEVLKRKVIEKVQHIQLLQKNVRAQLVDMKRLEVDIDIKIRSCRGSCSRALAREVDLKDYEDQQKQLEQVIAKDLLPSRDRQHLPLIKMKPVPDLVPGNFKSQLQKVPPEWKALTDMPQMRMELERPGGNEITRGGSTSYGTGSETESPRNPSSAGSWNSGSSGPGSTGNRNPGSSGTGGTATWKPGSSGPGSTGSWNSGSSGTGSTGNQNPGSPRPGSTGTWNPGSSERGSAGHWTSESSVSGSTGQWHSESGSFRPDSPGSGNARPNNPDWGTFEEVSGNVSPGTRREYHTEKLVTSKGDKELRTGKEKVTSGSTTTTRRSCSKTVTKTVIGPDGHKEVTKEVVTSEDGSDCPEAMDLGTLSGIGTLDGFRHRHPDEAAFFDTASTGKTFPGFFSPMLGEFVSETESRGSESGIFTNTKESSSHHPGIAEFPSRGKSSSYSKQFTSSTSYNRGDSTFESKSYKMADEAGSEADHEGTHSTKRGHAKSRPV
T1 chain 2: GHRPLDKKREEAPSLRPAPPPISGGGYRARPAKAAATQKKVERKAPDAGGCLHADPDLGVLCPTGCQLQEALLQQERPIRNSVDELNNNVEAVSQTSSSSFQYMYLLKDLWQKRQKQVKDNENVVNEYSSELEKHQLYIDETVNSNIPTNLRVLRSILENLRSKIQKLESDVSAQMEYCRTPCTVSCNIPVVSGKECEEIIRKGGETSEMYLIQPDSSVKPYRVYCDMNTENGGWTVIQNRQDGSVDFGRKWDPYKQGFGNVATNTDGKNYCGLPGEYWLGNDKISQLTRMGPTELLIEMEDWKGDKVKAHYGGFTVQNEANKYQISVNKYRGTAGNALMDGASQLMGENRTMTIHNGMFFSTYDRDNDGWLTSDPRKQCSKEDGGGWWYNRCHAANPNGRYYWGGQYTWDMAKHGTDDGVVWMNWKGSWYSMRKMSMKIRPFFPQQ
T1 chain 3: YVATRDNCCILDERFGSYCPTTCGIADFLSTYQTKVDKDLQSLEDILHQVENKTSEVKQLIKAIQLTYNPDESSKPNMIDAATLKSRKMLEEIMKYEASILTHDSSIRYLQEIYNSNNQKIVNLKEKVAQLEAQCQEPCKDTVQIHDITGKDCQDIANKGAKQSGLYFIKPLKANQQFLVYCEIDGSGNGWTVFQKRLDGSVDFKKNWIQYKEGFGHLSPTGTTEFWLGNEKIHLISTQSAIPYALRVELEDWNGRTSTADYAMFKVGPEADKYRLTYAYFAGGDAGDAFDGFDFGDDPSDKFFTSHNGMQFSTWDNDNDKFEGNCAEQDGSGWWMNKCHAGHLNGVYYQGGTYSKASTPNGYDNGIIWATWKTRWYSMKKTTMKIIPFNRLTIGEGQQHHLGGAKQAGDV


target: fibrin; experiment: fluorescence polarization, direct binding (n = 2)

Binder | Kd
Ac-GWQPCPAESWTFCWDPGGGK(CF5)-NH2 (disulfide 5-13) [Ac-GWQPC*PAESWTFC*WDPGGGK(CF5)-NH2] | 0.24 µM
RWQPCPAESWTFCWDPGGGK(CF5)-NH2 (disulfide 5-13; not fully specified (N-terminus); printed as RWQPC*PAESWTFC*WDPGGGK(CF5)-NH2) [Ac-RWQPC*PAESWTFC*WDPGGGK(CF5)-NH2] | 0.21 µM
Ac-WQPCPWESWT[Phe(4-F)]CWDPGGGK(CF5)-NH2 (disulfide 4-12) [Ac-WQPC*PWESWT-Ffe4-C*WDPGGGK(CF5)-NH2] | 1.02 µM
Ac-WQPCPWESWTFCWDPGGGK(CF5)-NH2 (disulfide 4-12) [Ac-WQPC*PWESWTFC*WDPGGGK(CF5)-NH2] | 0.39 µM
Ac-WQPCPWESWT[Phe(3,4-F2)]CWDPGGGK(CF5)-NH2 (disulfide 4-12) [Ac-WQPC*PWESWT-F34fe-C*WDPGGGK(CF5)-NH2] | 0.7 µM
Ac-RGWQPCPAESWT[Cha]CWDPGGGK(CF5)-NH2 (disulfide 6-14) [Ac-RGWQPC*PAESWT-Cha-C*WDPGGGK(CF5)-NH2] | 0.1 µM
H-RWQPCPAESWTFCWDPGGGK(CF5)-NH2 (disulfide 5-13) [RWQPC*PAESWTFC*WDPGGGK(CF5)-NH2] | 0.06 µM
H-RWQPCPWESWTFCWDPGGGK(CF5)-NH2 (disulfide 5-13) [RWQPC*PWESWTFC*WDPGGGK(CF5)-NH2] | 0.11 µM
H-RGWQPCPAESWT[Cha]CWDPGGGK(CF5)-NH2 (disulfide 6-14) [RGWQPC*PAESWT-Cha-C*WDPGGGK(CF5)-NH2] | 0.05 µM
Ac-RWQPCPWESWTFCWDPGGGK(CF5)-NH2 (disulfide 5-13) [Ac-RWQPC*PWESWTFC*WDPGGGK(CF5)-NH2] | 0.11 µM
Ac-WQPCPWESWT[Cha]CWDPGGGK(CF5)-NH2 (disulfide 4-12) [Ac-WQPC*PWESWT-Cha-C*WDPGGGK(CF5)-NH2] | 0.2 µM
H-GWQPCPAESWTFCWDPGGGK(CF5)-NH2 (disulfide 5-13) [GWQPC*PAESWTFC*WDPGGGK(CF5)-NH2] | 0.24 µM
Thf2ca-WQPCPWESWTFCWDPGGGK(CF5)-NH2 (disulfide 4-12) [Thf2ca-WQPC*PWESWTFC*WDPGGGK(CF5)-NH2] | 1.21 µM

target: fibrin; experiment: competition fluorescence polarization assay; reference of Table 6

Binder | Rel IC50 (ratio (reference peptide itself))
WQPCPWESWTFCWDPGGGK (N-terminal acetyl; disulfide Cys4-Cys12 (C*); C-terminal amide) [Ac-WQPC*PWESWTFC*WDPGGGK-NH2] | 1

target: fibrin; experiment: competition fluorescence polarization assay (n = 2)

Binder | Rel IC50 (ratio to Ac-Seq000-GGGK-NH2)
Ac-WQPCPWESWT[Cha]CWDPGGGK-NH2 (disulfide 4-12) [Ac-WQPC*PWESWT-Cha-C*WDPGGGK-NH2] | 0.494
Ac-WQPCPWESWT[Phe(3,4-F2)]CWDPGGGK-NH2 (disulfide 4-12) [Ac-WQPC*PWESWT-F34fe-C*WDPGGGK-NH2] | 0.428
H-GWQPCPWESWTFCWDPGGGK-NH2 (disulfide 5-13) [GWQPC*PWESWTFC*WDPGGGK-NH2] | 0.622
Ac-GWQPCPWESWTFCWDPGGGK-NH2 (disulfide 5-13) [Ac-GWQPC*PWESWTFC*WDPGGGK-NH2] | 1.04
Thf2ca-WQPCPWESWTFCWDPGGGK-NH2 (disulfide 4-12) [Thf2ca-WQPC*PWESWTFC*WDPGGGK-NH2] | 0.616
Ac-WQPCPWESWT[Phe(4-F)]CWDPGGGK-NH2 (disulfide 4-12) [Ac-WQPC*PWESWT-Ffe4-C*WDPGGGK-NH2] | 0.601

Target: T1, fibrin
Experiment: as above

Binder | Rel IC50
Ac-RRGGWQPC[Hyp]WESWTFCWDPGGGK-NH2 (disulfide 8-16; SMILES CC(=O)N[C@@H](CCCNC(=N)N)C(=O)N[C@@H](CCCNC(=N)N)C(=O)NCC(=O)NCC(=O)N[C@@H](Cc1c[nH]c2ccccc12)C(=O)N[C@@H](CCC(N)=O)C(=O)N1CCC[C@H]1C(=O)N[C@H]1CSSC[C@@H](C(=O)N[C@@H](Cc2c[nH]c3ccccc23)C(=O)N[C@@H](CC(=O)O)C(=O)N2CCC[C@H]2C(=O)NCC(=O)NCC(=O)NCC(=O)N[C@@H](CCCCN)C(N)=O)NC(=O)[C@H](Cc2ccccc2)NC(=O)[C@H]([C@@H](C)O)NC(=O)[C@H](Cc2c[nH]c3ccccc23)NC(=O)[C@H](CO)NC(=O)[C@H](CCC(=O)O)NC(=O)[C@H](Cc2c[nH]c3ccccc23)NC(=O)[C@@H]2C[C@@H](O)CN2C1=O) [Ac-RRGGWQPC*-Hypt4-WESWTFC*WDPGGGK-NH2] | 0.75 ratio to Ac-Seq000-GGGK-NH2
